{"source": "patent US20040037830A1", "biological_target": "IL-8 receptors on human neutrophils", "assay": "125I-IL-8 competition with unlabelled IL-8, Scatchard analysis, human neutrophils"}
{"substance": "human 72 amino acid IL-8 (interleukin-8), recombinant, made in E. coli (from UniProt P10145 28-99) (ligand)", "values": [{"measurement": "binding sites/cell (binding sites/cell)", "result": 31000}]}
